The values below come from patent US20200247855A1 (published 2020).

Among the targets are CXCL4; CXCL2; CXCL6; CXCL5; CXCL10_HUMAN (human, UniProt P02778 22-98); CXCL1_HUMAN (human, UniProt P09341 35-107); CXCL3_HUMAN (human, UniProt P19876 35-107); CXCL13; CCL13_HUMAN (human, UniProt Q99616 24-98); CCL11_HUMAN (human, UniProt P51671 24-97).
Common to all, as to experiment: BLI
In another assay the target is T1, CXCL11_HUMAN (human, UniProt O14625 22-94).
T1 chain: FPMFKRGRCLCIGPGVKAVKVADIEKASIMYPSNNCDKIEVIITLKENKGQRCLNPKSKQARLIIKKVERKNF

The target of a further assay is T2, CCL14_HUMAN (human, UniProt Q16627 22-93).
T2 chain: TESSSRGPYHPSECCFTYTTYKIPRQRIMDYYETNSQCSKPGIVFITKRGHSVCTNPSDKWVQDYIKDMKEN

In the next assay the target is T3, CCL8_HUMAN (human, UniProt P80075 24-99).
T3 chain: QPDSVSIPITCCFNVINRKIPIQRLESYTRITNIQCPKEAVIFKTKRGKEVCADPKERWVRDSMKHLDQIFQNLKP

Usually Kd stands for a measure of binding affinity in units of concentration.

CXCL1_HUMAN, sequence (P09341 35-107): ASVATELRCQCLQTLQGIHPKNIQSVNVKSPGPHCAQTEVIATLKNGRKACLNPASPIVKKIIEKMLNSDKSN
CXCL3_HUMAN, sequence (P19876 35-107): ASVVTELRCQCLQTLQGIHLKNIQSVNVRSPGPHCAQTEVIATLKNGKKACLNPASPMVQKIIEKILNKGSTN
CXCL10_HUMAN, sequence (P02778 22-98): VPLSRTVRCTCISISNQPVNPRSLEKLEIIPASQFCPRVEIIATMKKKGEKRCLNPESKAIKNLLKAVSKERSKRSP
CCL11_HUMAN, sequence (P51671 24-97): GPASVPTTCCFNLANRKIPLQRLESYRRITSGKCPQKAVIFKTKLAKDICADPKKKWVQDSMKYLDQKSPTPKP
CCL13_HUMAN, sequence (Q99616 24-98): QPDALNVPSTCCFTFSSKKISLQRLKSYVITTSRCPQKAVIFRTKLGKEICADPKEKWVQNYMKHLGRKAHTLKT

B1: P1080_IXORI (other)
chain: SAGSKGSSAPQSSGDSVVAEFCDTNCTMKKDGKWTECNGDCFCVHVGNETVGRCMRLDGDYDYTSSKTTRRNKKTRNGLCRLDRNRTTVDYPERNTREP
Consider B1, for which the Kd amounted to 2310 nM with CXCL4; 392 nM in the assay with CXCL2; 11 nM with CXCL6; 56.6 nM with CXCL5; 73.3 nM with CXCL11_HUMAN; 1260 nM in the assay with CXCL10_HUMAN. Further, the Kd stood at 55.1 nM with CXCL1_HUMAN, 124 nM with CXCL3_HUMAN and 1110 nM with CXCL13.

B2: P675_IXORI (other)
chain: GSNQLSGPQSSANSNDAVFCDTNCTQGTDGAWSGCRGDCFCVHVGNSTEGRCIELIGDFDYSTPGAED
B2: the Kd in the assay with CXCL4 was determined as 422 nM; with CXCL2 it was 24.8 nM; in the assay with CXCL6 it was 7.68 nM; with CXCL5 it was 34.2 nM; with CXCL11_HUMAN, 7.73 nM; in the assay with CXCL10_HUMAN it was 3120 nM. Moreover, the Kd in the assay with CXCL1_HUMAN was found to be 9.99 nM; with CXCL3_HUMAN it was 35.7 nM; with CXCL13, 582 nM.

B3: P1243_AMBAM (other)
chain: RNHTEDNSTEYYDYEEARCACPARHLNNTNGTVLKLLGCHYFCNGTLCTAPDGYPCYNLTAQQVRTLTTYPNTSCAVGVCMKGTCVKNGTMEQCFKTP
As for B3, the Kd with CCL14_HUMAN came out at 6.43 nM; with CCL8_HUMAN, 193 nM; with CCL13_HUMAN, 1.64 nM; with CCL11_HUMAN, 36.8 nM.
